The text below walks through data of PMC5245964 (2017).

This test has as its target MBP-M18BP1^1-140-8His (Homo sapiens (Human), UniProt Q6P0N0). Briefly: amylose-resin pull-down, CBB-stained gel; Mis18β Yippee domain alone does not bind; binding requires the Mis18α:Mis18β Yippee heterodimer (Mis18α Yippee domain present).

MBP-M18BP1^1-140-8His, sequence (Q6P0N0 1-140, one chain of several): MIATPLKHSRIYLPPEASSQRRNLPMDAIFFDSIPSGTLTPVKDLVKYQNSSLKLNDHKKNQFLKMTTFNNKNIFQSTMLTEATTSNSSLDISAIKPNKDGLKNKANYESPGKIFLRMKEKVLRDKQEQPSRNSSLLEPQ

B1: 6His-Mis18β^73-189 (protein)
chain: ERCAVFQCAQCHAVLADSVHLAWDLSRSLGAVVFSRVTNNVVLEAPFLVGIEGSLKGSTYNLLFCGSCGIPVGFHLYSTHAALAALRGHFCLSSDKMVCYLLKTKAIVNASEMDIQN
On to B1, for which the binding result is listed as “no binding”.
